A short description of the series: soluble on expression in E. coli; label from the status in PepcDB or PDB records.
With “MKILAIINPISGIGSKSNIPSLIADVFAHDPHELFITYSQRAGHARELAAQAVEKHYDCVIAVGGDGTVNEIAQSLRYTDVVLGIVPKGSGNGLARALKLPLTVGKALEVIRAGHVRTIDCCEADSRPFFCTCGLGFDAEVSKKFAQAGSRGPITYARTMIESYLQNEPKEYKLTIDGKSFEEKAFLVTCANAPQYGNNAYIAPLADLEDGKMDVVIIRPFNPLEAPQLALQLFTKRINSNSNLDTYKAENLIIERETEGVMHLDGDPVMFGKRIEIRTYGRSLKVFATETYT”, the “soluble on expression in E. coli” value is “not soluble”.
Consider “MKIQDYTKEMVDEKSFIDMAYTLLNDKQTTMNLYDIIDEFKSLGGYEYEDIENRIVQFYTDLNTDGRFLNVGENLWGLRDWYSVDDIEEKIAPTIQKFDILDDEDEEDQNLKLLGDDDADEDDDIPAQTDDQETLDESDNDEDDVEMNEADIVIDEDEDEDIAEGEEEAFEDAEDFND”, for which the “soluble on expression in E. coli” value is “not soluble”.
As to “MKISIENIGKIKSTSILLDGFTVIAGENDSGKSTVGKIVYSIIQAFSIYPQFRKEKIRRKTSHSLRFFITELRRNFDLTKHDSLRQMMSFSFVNHIMADPDDALYEIRGVLDKLEESYPEKLETLIKLKSRLYGIQREIDSLSESDDIFESITDLMQSEFGGEIDRKQDSRPPSFEINDGETTVISAKFSDGIITDGIYSGGLGLGLGDATYIDGASILQYAHLINLNDSDPRLPFHITDLARKLISPTLVRGGSSNLADIYKGRLVFDETQNSFYFDKGGYRVCLNNIASGIKNIGVLDLLVKKGVICDGSLLVLDEPEINLHPKWQTQLAKIICELHQAGVYILLTTHSPYMIEALHYYANVSGIKSNFYLACKSIANPDDVDFIDLSMNVGAIIEDLAQPLWDIVEDNNEFLEHHHHHH”, the “soluble on expression in E. coli” value is recorded as “soluble”.
As for “MKISPSRQVKGEIEIIPVSGFRGIGKFIDVPWRLYADDPLWVPPLRLERRLHLSRFNPYFRHAQWQGWIACRDNQPVGRISAQIDELYQQRYGTDTGHFGMLESIQDEAVFSRLIQVAESWLVERGVRQISGPFNFSINQECGLLVQGFDTPPVFMMPYSPEWYTSLLEQNGYQPCKDLLAYWLVTDFDPPPAMQAIDRKYRHQIRIRPLQRNRFNEEIETMRDIFNDAWSDNWGFVPFTQEEFAELGSSLRWLVPDEFIQIAEIDGRPVAFMAVLPNLNEVLPALNGKLLPLGWLHLINKLKSASITTGRVPLMGVRKQFHHTLVGIALAFKVIDAPRKMVKSRGIGHVELSWILEDNQSMRAILEKIGGREYKRYRIYDKTLA”, the “soluble on expression in E. coli” value is reported as “not soluble”.
As for “MKITVIGAGNVGATTAFRLAEKQLARELVLLDVVEGIPQGKALDMYESGPVGLFDTKVTGSNDYADTANSDIVIITAGLPRKPGMTREDLLMKNAGIVKEVTDNIMKHSKNPIIIVVSNPLDIMTHVAWVRSGLPKERVIGMAGVLDAARFRSFIAMELGVSMQDINACVLGGHGDAMVPVVKYTTVAGIPISDLLPAETIDKLVERTRNGGAEIVEHLKQGSAFYAPASSVVEMVESIVLDRKRVLPCAVGLEGQYGIDKTFVGVPVKLGRNGVEQIYEINLDQADLDLLQKSAKIVDENCKMLESTIG”, the “soluble on expression in E. coli” value is “soluble”.
Under “MKIVAIGAIPFSIPYTKPLRFASGEVHAAEHVLVRVHTDDGIVGVAEAPPRPFTYGETQTGIVAVIEQYFAPALIGLTLTEREVAHTRMARTVGNPTAKAAIDMAMWDALGQSLRLSVSEMLGGYTDRMRVSHMLGFDDPVKMVAEAERIRETYGINTFKVKVGRRPVQLDTAVVRALRERFGDAIELYVDGNRGWSAAESLRAMREMADLDLLFAEELCPADDVLSRRRLVGQLDMPFIADESVPTPADVTREVLGGSATAISIKTARTGFTGSTRVHHLAEGLGLDMVMGNQIDGQIGTACTVSFGTAFERTSRHAGELSNFLDMSDDLLTVPLQISDGQLHRRPGPGLGIEIDPDKLAHYRTDN” stands “soluble”.
The same measure for “MKIVILAPTITPIVSYGGLGDVMRDLPKFLKKGNEVVVLTLNHYNRYFTLPYEDIKKITVIYKGAKITFDVLRTKHPTTGVDLIVFSNESVNNLNVWDPIKYEIFADLVITYLDEVKDIDVVSGHDWMCGLAIAKCNDILDLPTTLTIHNEAFKGEMIEYKGEVMTFLELGIKYADAVNTVSPSHAEEIKNYPYIKKYLNNKPFCGILNGIDIDEYDPMKIIERMCNLSNNKLDPRNYAYISPYSAEDSHNIKPKIKYSWFYRGGVYEYVEDWNKIDKGISATDVEVHGGVDGDIETPLIGFVGRATHQKGFNTMFEAIPELLEKHDIRFVFLTKGDRDIEERLKNLANEHDGRILALIGYSLPLSSLVFAGSDWIIMPSYWEPCGLVQMEAMAYCTPVIATETGGLKDTIIPLHPNPYEHPNFDKATGVLFKVPDKVGFMWGVEHALNWTFYKLNEICMFMQYIRYKCPKHPYDENSPLSMMMKNCYYHVFRNLSWQNSPSIRKYKGLFGGAIYNHYLQP”: “soluble”; for “MKKAKLGKSDLQVFPIGLGTNAVGGHNLYPNLNEETGKELVREAIRNGVTMLDTAYIYGIGRSEELIGEVLREFNREDVVIATKAAHRKQGNDFVFDNSPDFLKKSVDESLKRLNTDYIDLFYIHFPDEHTPKDEAVNALNEMKKAGKIRSIGVSNFSLEQLKEANKDGLVDVLQGEYNLLNREAEKTFFPYTKEHNISFIPYFPLVSGLLAGKYTEDTTFPEGDLRNEQEHFKGERFKENIRKVNKLAPIAEKHNVDIPHIVLAWYLARPEIDILIPGAKRADQLIDNIKTADVTLSQEDISFIDKLFAPG”: “soluble”.
Under “MKKAVVVFSGGQDSTTCLVQALKEFDEVHAITFDYGQRHKLEIEVAQQLAKQLGVTAHKVMDVSLLNELAISSLTRDDIPVSHELQANGLPNSFVPGRNILFLTLAGIYAYQIGATTVITGVCETDFSGYPDCRDEFVQAMNQALAKGMDLPLMIRTPLMWLNKAETWALADQLGALDLVRHQTLTCYNGLIGDGCGECPACGLRQAGLKAYLDNRDLIMSALKSKQSAAH” stands “not soluble”; under “MKKAYLVWGMAALLSLGVAQQAGGLTLEGVEALRQEARKAYPVGFVDLAPWKRALEAAEALAKQNPNDLRALRLLAEIYTETQWAIRAWEAWMNYREKGGTWDEAARQAAAKVARTLAFYANQRGDRAEAERWAAQAQAVEAGQ”, “soluble”.
As to “MKKCRICGKKAIIYMPHHRLALCREHFVEWFEKYTERTIKEFKMFTKKDKVLVAISGGKDSLALWHVLRKLGYEADGLYINLGIGEYSEKSKEKVLKFAEKINGKAIIVDLKEELAGIPELVKITSREACSVCGLVKRYNFNKVAKEHGYNVIATGHNLDDEASALLANVLNWNEKYLGRKYPVLEEEAGFVRKVKPFCKFTEKETALYALLNGIDFIEEECPFSEDATSVFYKKILNEIEERSPGTKLRFYLDYLRKIYPKFRKEEEKKELQPCKVCGEPTVGEICPVCRLREKVEASSG”, the “soluble on expression in E. coli” value is listed as “soluble”.
The same measure for “MKKFSSLFRSFMHFQLTLVKPLTRRSRPIELGRLNCTEPVSSNFGFERGRPIDRYYINIFLSQNTNDVRGRVLEISDNGYTKRLGGKKVKQSDVLHAVEGNPKATIVSDITKADNIPSDSFDCIILTQTLQFIYDTKSAVRHLHRILKPNGVLLATMSGISQISRYDMDHWGEYWRFTTASAKQLFEEEFLPENIEVKAYGNVLSSTAFLYGLAVEDLKTEQLDYHDPNYQMLVTVRAVKADKQLEHHHHHH”: “not soluble”; for “MKKIALTLAATSITLVSYSAFSAQDAEHVRLATTTSTYHSGLLDYLLPQFEKDTGYKVDVIAAGTGKALKMGENGDVDLVMTHAPKAEGTFVEKGYGVLPRKLMYNDFVIVGPKADPAKIKDDESVLDVFKEIANKNATFISRGDDSGTHKKEMGFWAQTKIEPNFGGYRSVGQGMGPTLNMASEMQGYTMSDRGTWLAYQNKLDLEILFQGDEKLFNPYQVILVNPERYPTINYQGAKAFSDWLVNPRGQELINGFRLNGKQLFVANAESK”: “not soluble”.
Under “MKKIATATIATAGIATFAFAHHDAQAAEQNNDGYNPNDPYSYSYTYTIDAEGNYHYTWKGNWSPDRVNTSYNYNNYNNYNYYGYNNYSNYNNYSNYNNYNNYQSNNTQSQRTTQPTGGLGASYSTSSSNVHVTTTSAPSSNGVSLSNARSASGNLYTSGQCTYYVFDRVGGKIGSTWGNANNWANAAARSGYTVNNSPAKGAILQTSQGAYGHVAYVEGVNSNGSIRVSEMNYGHGAGVVTSRTISASQAASYNYIHLEHHHHHH” stands “not soluble”; under “MKKIKALALFSGGLDSLLSMKLLIDQGIEVTALHFNIGFGGNKDKREYFENATAQIGAKLLVCDIREQFFNDVLFKPKYGYGKYFNPCIDCHANMFRNAFYKMLELNADFVLSGEVLGQRPKSQRKEALNQVRKLVREVGEEARFDPVLDRTQAGGKKPQFLDELLLRPMSAKLLEPTFMEKKGFVDREKLLDVSGRGRSRQLQMIKDYGLKYYEKPGGGCLLTDIQVSNKIKNLKEYREMVFEDSVIVKNGRYFVLPHNARLVVARNEEENHKLDIQHPLMDKIELLNCKGPLSLVDKNASKEDKELAGRIALGYAKTLKNQAYLIQIGDEKRELYPLDKENAREYLFALEHHHHHH”, “soluble”.
The same measure for “MKKILFICLGNICRSPMAEFIMKDLVKKANLEKEFFINSAGTSGEHDGEGMHYGTKNKLAQLNIEHKNFTSKKLTQKLCDESDFLITMDNSNFKNVLKNFTNTQNKVLKITDFSPSLNYDEVPDPWYSGNFDETYKILSLACKNLLVFLSKHHHHH”: “soluble”; for “MKKILIVDDEKPISDIIKFNMTKEGYEVVTAFNGREALEQFEAEQPDIIILDLMLPEIDGLEVAKTIRKTSSVPILMLSAKDSEFDKVIGLELGADDYVTKPFSNRELQARVKALLRRSQ”: “soluble”; for “MKKIYKVLYPVGFQIFEVQDDYVVALPFVEEKPLENLVNEQSQFFNFSEQKWEEAVTQDYTKKLNLLENLANGLEVSNSELKQANEKLTAKAESLAQINSKTMLTSLQNTREIDAIKEQIGGAK”: “not soluble”.
Turning to “MKKLAVKALLFIMGTMLYSAPTYEYRRELREGARGKWTNLRQHLNSGTRLEKELTKVDKQIDKKVNEIQEIEDLLFRIEQYKAANNIR”, the “soluble on expression in E. coli” value is reported as “not soluble”.
Under “MKKLIIIPAYNESSNIVNTIRTIESDAPDFDYIIIDDCSTDNTLAICQKQGFNVISLPINLGIGGAVQTGYRYAQRCGYDVAVQVDGDGQHNPCYLEKMVEVLVQSSVNMVIGSRFITKEGFQSSFARRIGIKYFTWLIALLTGKKITDATSGLRLIDRSLIERFANHYPDDYPEPETVVDVLVSHFKVKEIPVVMNERQGGVSSISLTKSVYYMIKVTLAILVVRLKGNR” stands “not soluble”; under “MKKLVTATTLTAGIGAAIVGLDHGNEADAAEQTQPTNQSTTQSTSGSSANLYTAGQCTWYVYDKVGGNIGSTWGNANNWASAASSAGYTVNNSPEAGSILQSTAGGYGHVAYVENVNSDGSVEVSEMNYNGGPFSVSERTISAGEASSYNYIHLNLEHHHHHH”, “soluble”.
Regarding “MKKQPGQQPLRSLSLTSAAKSLEEVEPEDDSKKGEPHAKAAGFGRGGGGGKRLPAARSTPMVIPNQVAAMPVQMTGFVQLATNNILSAIAHTNSLMVVQCIEPLEIFTGFETPNRYVVHDMYCRPLLYCMERSNVFARQYHGNNRKLSASTLDSCRRCSPMRTLTLFTFQWTCRQS”, the “soluble on expression in E. coli” value is reported as “soluble”.
The same measure for “MKKRLLLSTFLASTLILTGCASDQSDNEDHHTSTGIHAPKSAKKLETKDIFNSDKKNSDISDAEMKQAIEKYLSVNSDILDNKYIMQHKLDKQIDSQTKVTEKQAETLSHLSNLAVKNDLHFKKFVTENNIPKEYKKPVELMMNYFKALNSTIANVDEDIEKLSYQPQNKINVVDVPTKYAGDVNKKQQDKIKDFLKSKGIKSDVIDK”: “not soluble”.
